Test results taken from patent US12099068B2, “Biomarkers for graft-versus-host disease” (Incyte Corporation, priority 2018, dated 2024).

B1: IL-5R-alpha (protein, UniProt Q01344 21-420, looked up)
Interleukin-5 receptor …: DLLPDEKISLLPPVNFTIKVTGLAQVLLQWKPNPDQEQRNVNLEYQVKINAPKEDDYETRITESKCVTILHKGFSASVRTILQNDHSLLASSWASAELHAPPGSPGTSIVNLTCTTNTTEDNYSRLRSYQVSLHCTWLVGTDAPEDTQYFLYYRYGSWTEECQEYSKDTLGRNIACWFPRTFILSKGRDWLAVLVNGSSKHSAIRPFDQLFALHAIDQINPPLNVTAEIEGTRLSIQWEKPVSAFPIHCFDYEVKIHNTRNGYLQIEKLMTNAFISIIDDLSKYDVQVRAAVSSMCREAGLWSEWSQPIYVGNDEHKPLREWFVIVIMATICFILLILSLICKICHLWIKLFPPIPAPKSNIKDLFVTTNYEKAGSSETEIEVICYIEKPGVETLEDSVF
B2: SH2B3 (protein, UniProt Q9UQQ2 1-575, looked up)
SH2B adapter protein 3: MNGPALQPSSPSSAPSASPAAAPRGWSEFCELHAVAAARELARQYWLFAREHPQHAPLRAELVSLQFTDLFQRYFCREVRDGRAPGRDYRDTGRGPPAKAEASPEPGPGPAAPGLPKARSSEELAPPRPPGPCSFQHFRRSLRHIFRRRSAGELPAAHTAAAPGTPGEAAETPARPGLAKKFLPWSLAREPPPEALKEAVLRYSLADEASMDSGARWQRGRLALRRAPGPDGPDRVLELFDPPKSSRPKLQAACSSIQEVRWCTRLEMPDNLYTFVLKVKDRTDIIFEVGDEQQLNSWMAELSECTGRGLESTEAEMHIPSALEPSTSSSPRGSTDSLNQGASPGGLLDPACQKTDHFLSCYPWFHGPISRVKAAQLVQLQGPDAHGVFLVRQSETRRGEYVLTFNFQGIAKHLRLSLTERGQCRVQHLHFPSVVDMLHHFQRSPIPLECGAACDVRLSSYVVVVSQPPGSCNTVLFPFSLPHWDSESLPHWGSELGLPHLSSSGCPRGLSPEGLPGRSSPPEQIFHLVPSPEELANSLQHLEHEPVNRARDSDYEMDSSSRSHLRAIDNQYTPL
B3: STK4 (protein, UniProt Q13043 1-487, looked up)
Serine/threonine-protein …: METVQLRNPPRRQLKKLDEDSLTKQPEEVFDVLEKLGEGSYGSVYKAIHKETGQIVAIKQVPVESDLQEIIKEISIMQQCDSPHVVKYYGSYFKNTDLWIVMEYCGAGSVSDIIRLRNKTLTEDEIATILQSTLKGLEYLHFMRKIHRDIKAGNILLNTEGHAKLADFGVAGQLTDTMAKRNTVIGTPFWMAPEVIQEIGYNCVADIWSLGITAIEMAEGKPPYADIHPMRAIFMIPTNPPPTFRKPELWSDNFTDFVKQCLVKSPEQRATATQLLQHPFVRSAKGVSILRDLINEAMDVKLKRQESQQREVDQDDEENSEEDEMDSGTMVRAVGDEMGTVRVASTMTDGANTMIEHDDTLPSQLGTMVINAEDEEEEGTMKRRDETMQPAKPSFLEYFEQKEKENQINSFGKSVPGPLKNSSDWKIPQDGDYEFLKSWTVEDLQKRLLALDPMMEQEIEEIRQKYQSKRQPILDAIEAKKRRQQNF
B4: SIGLEC6 (protein, UniProt O43699 27-453, looked up)
Sialic acid-binding Ig-like …: QERRFQLEGPESLTVQEGLCVLVPCRLPTTLPASYYGYGYWFLEGADVPVATNDPDEEVQEETRGRFHLLWDPRRKNCSLSIRDARRRDNAAYFFRLKSKWMKYGYTSSKLSVRVMALTHRPNISIPGTLESGHPSNLTCSVPWVCEQGTPPIFSWMSAAPTSLGPRTTQSSVLTITPRPQDHSTNLTCQVTFPGAGVTMERTIQLNVSYAPQKVAISIFQGNSAAFKILQNTSSLPVLEGQALRLLCDADGNPPAHLSWFQGFPALNATPISNTGVLELPQVGSAEEGDFTCRAQHPLGSLQISLSLFVHWKPEGRAGGVLGAVWGASITTLVFLCVCFIFRVKTRRKKAAQPVQNTDDVNPVMVSGSRGHQHQFQTGIVSDHPAEAGPISEDEQELHYAVLHFHKVQPQEPKVTDTEYSEIKIHK
B5: gal-8 (protein, UniProt O00214 1-317, looked up)
Galectin-8: MMLSLNNLQNIIYNPVIPFVGTIPDQLDPGTLIVIRGHVPSDADRFQVDLQNGSSMKPRADVAFHFNPRFKRAGCIVCNTLINEKWGREEITYDTPFKREKSFEIVIMVLKDKFQVAVNGKHTLLYGHRIGPEKIDTLGIYGKVNIHSIGFSFSSDLQSTQASSLELTEISRENVPKSGTPQLRLPFAARLNTPMGPGRTVVVKGEVNANAKSFNVDLLAGKSKDIALHLNPRLNIKAFVRNSFLQESWGEEERNITSFPFSPGMYFEMIIYCDVREFKVAVNGVHSLEYKHRFKELSSIDTLEINGDIHLLEVRSW
B6: SNAP29 (protein, UniProt O95721 1-258, looked up)
Synaptosomal-associated …: MSAYPKSYNPFDDDGEDEGARPAPWRDARDLPDGPDAPADRQQYLRQEVLRRAEATAASTSRSLALMYESEKVGVASSEELARQRGVLERTEKMVDKMDQDLKISQKHINSIKSVFGGLVNYFKSKPVETPPEQNGTLTSQPNNRLKEAISTSKEQEAKYQASHPNLRKLDDTDPVPRGAGSAMSTDAYPKNPHLRAYHQKIDSNLDELSMGLGRLKDIALGMQTEIEEQDDILDRLTTKVDKLDVNIKSTERKVRQL
B7: GCNT1 (protein, UniProt Q02742 1-428, looked up)
Beta-1,3-galactosyl-O-glycosyl …: MLRTLLRRRLFSYPTKYYFMVLVLSLITFSVLRIHQKPEFVSVRHLELAGENPSSDINCTKVLQGDVNEIQKVKLEILTVKFKKRPRWTPDDYINMTSDCSSFIKRRKYIVEPLSKEEAEFPIAYSIVVHHKIEMLDRLLRAIYMPQNFYCIHVDTKSEDSYLAAVMGIASCFSNVFVASRLESVVYASWSRVQADLNCMKDLYAMSANWKYLINLCGMDFPIKTNLEIVRKLKLLMGENNLETERMPSHKEERWKKRYEVVNGKLTNTGTVKMLPPLETPLFSGSAYFVVSREYVGYVLQNEKIQKLMEWAQDTYSPDEYLWATIQRIPEVPGSLPASHKYDLSDMQAVARFVKWQYFEGDVSKGAPYPPCDGVHVRSVCIFGAGDLNWMLRKHHLFANKFDVDVDLFAIQCLDEHLRHKALETLKH
B8: ESM-1 (protein, UniProt Q9NQ30 20-184, looked up)
Endothelial cell-specific …: WSNNYAVDCPQHCDSSECKSSPRCKRTVLDDCGCCRVCAAGRGETCYRTVSGMDGMKCGPGLRCQPSNGEDPFGEEFGICKDCPYGTFGMDCRETCNCQSGICDRGTGKCLKFPFFQYSVTKSSNRFVSLTEHDMASGDGNIVREEVVKENAAGSPVMRKWLNPR
B9: TYMP (protein, UniProt P19971 11-482, looked up)
Thymidine phosphorylase: APPAPGDFSGEGSQGLPDPSPEPKQLPELIRMKRDGGRLSEADIRGFVAAVVNGSAQGAQIGAMLMAIRLRGMDLEETSVLTQALAQSGQQLEWPEAWRQQLVDKHSTGGVGDKVSLVLAPALAACGCKVPMISGRGLGHTGGTLDKLESIPGFNVIQSPEQMQVLLDQAGCCIVGQSEQLVPADGILYAARDVTATVDSLPLITASILSKKLVEGLSALVVDVKFGGAAVFPNQEQARELAKTLVGVGASLGLRVAAALTAMDKPLGRCVGHALEVEEALLCMDGAGPPDLRDLVTTLGGALLWLSGHAGTQAQGAARVAAALDDGSALGRFERMLAAQGVDPGLARALCSGSPAERRQLLPRAREQEELLAPADGTVELVRALPLALVLHELGAGRSRAGEPLRLGVGAELLVDVGQRLRRGTPWLRVHRDGPALSGPQSRALQEALVLSDRAPFAAPSPFAELVLPPQQ
B10: EGLN1 (protein, UniProt Q9GZT9 2-426, looked up)
Egl nine homolog 1: ANDSGGPGGPSPSERDRQYCELCGKMENLLRCSRCRSSFYCCKEHQRQDWKKHKLVCQGSEGALGHGVGPHQHSGPAPPAAVPPPRAGAREPRKAAARRDNASGDAAKGKVKAKPPADPAAAASPCRAAAGGQGSAVAAEAEPGKEEPPARSSLFQEKANLYPPSNTPGDALSPGGGLRPNGQTKPLPALKLALEYIVPCMNKHGICVVDDFLGKETGQQIGDEVRALHDTGKFTDGQLVSQKSDSSKDIRGDKITWIEGKEPGCETIGLLMSSMDDLIRHCNGKLGSYKINGRTKAMVACYPGNGTGYVRHVDNPNGDGRCVTCIYYLNKDWDAKVSGGILRIFPEGKAQFADIEPKFDRLLFFWSDRRNPHEVQPAYATRYAITVWYFDADERARAKVKYLTGEKGVRVELNKPSDSVGKDVF
B11: CLEC4D (protein, UniProt Q8WXI8 1-215, looked up)
C-type lectin domain family 4 …: MGLEKPQSKLEGGMHPQLIPSVIAVVFILLLSVCFIASCLVTHHNFSRCKRGTGVHKLEHHAKLKCIKEKSELKSAEGSTWNCCPIDWRAFQSNCYFPLTDNKTWAESERNCSGMGAHLMTISTEAEQNFIIQFLDRRLSYFLGLRDENAKGQWRWVDQTPFNPRRVFWHKNEPDNSQGENCVVLVYNQDKWAWNDVPCNFEASRICKIPGTTLN
B12: TNFRSF11A (protein, UniProt Q9Y6Q6 30-616, looked up)
Tumor necrosis factor …: IAPPCTSEKHYEHLGRCCNKCEPGKYMSSKCTTTSDSVCLPCGPDEYLDSWNEEDKCLLHKVCDTGKALVAVVAGNSTTPRRCACTAGYHWSQDCECCRRNTECAPGLGAQHPLQLNKDTVCKPCLAGYFSDAFSSTDKCRPWTNCTFLGKRVEHHGTEKSDAVCSSSLPARKPPNEPHVYLPGLIILLLFASVALVAAIIFGVCYRKKGKALTANLWHWINEACGRLSGDKESSGDSCVSTHTANFGQQGACEGVLLLTLEEKTFPEDMCYPDQGGVCQGTCVGGGPYAQGEDARMLSLVSKTEIEEDSFRQMPTEDEYMDRPSQPTDQLLFLTEPGSKSTPPFSEPLEVGENDSLSQCFTGTQSTVGSESCNCTEPLCRTDWTPMSSENYLQKEVDSGHCPHWAASPSPNWADVCTGCRNPPGEDCEPLVGSPKRGPLPQCAYGMGLPPEEEASRTEARDQPEDGADGRLPSSARAGAGSGSSPGGQSPASGNVTGNSNSTFISSGQVMNFKGDIIVVYVSQTSQEGAAAAAEPMGRPVQEETLARRDSFAGNGPRFPDPCGGPEGLREPEKASRPVQEQGGAKA

Tested on: plasma proteins
Test: Plasma proteins modulated between baseline and day 28 in responders (CR, VGPR, PR; n = 19), Example 6 (Table 13)
Format: in vivo, human
Conditions: plasma protein (OLINK NPX); responders (CR, VGPR, PR; n = 19); itacitinib 200 mg or 300 mg QD with corticosteroids; day 28 vs baseline
Experimental: Due to the limited sample size, steroid-naive (N=10) and steroid-refractory (N=18) patients were combined for further analysis. Broad proteomic analysis of over 1000 proteins was conducted by OLINK Proteomics (Watertown, MA) using a proximity extension assay as described by the manufacturer. Data are presented as normalized protein expression (NPX) in log 2 scale. Statistical differences were evaluated using unpaired and paired t tests, one-way […] (ANOVA), and Pearson Correlation. Significance was conferred when P<0.05.
Longitudinal differences in protein expression were analyzed by evaluating plasma samples from baseline/screening and day 28.

Going from B1 to B2, the “Fold Change, Decreased Expression from Baseline to Day 28” value (“Fold Change, Decreased Expression” below) falls from −1.6599 to −1.7273.

Compared with B3, B4 is lower in “Fold Change, Decreased Expression” value: −1.8393 for the first, −1.9024 for the second.

Going from B5 to B6, the “Fold Change, Decreased Expression” value falls from −1.3154 to −1.6325.

Compared with B7, B8 is lower in “Fold Change, Decreased Expression” value: −1.3034 for the first, −1.4178 for the second.

First: B9
Second: B10
The “Fold Change, Decreased Expression” value of the first is lower: −1.7313 for the first, −1.3184 for the second.

First: B11
Second: B12
The “Fold Change, Decreased Expression” value of the first is lower: −1.7084 for the first, −1.3519 for the second.
